# Article PMC4259310
# Columns and labels:
# [1] = molecular target: Snake Adenovirus 1 (SnAdV-1) fibre protein construct 171-345 (Snake Adenovirus 1 (SnAdV-1)); assay: crystal structure
# [2] = molecular target: Snake Adenovirus 1 (SnAdV-1) fibre head domain, construct 234-345, native (Snake Adenovirus 1 (SnAdV-1)); assay: crystal structure
Substance,stoichiometry N [1],stoichiometry N [2]
Snake Adenovirus 1 (SnAdV-1) fibre protein construct 171-345 (domain or fragment),3,–
"Snake Adenovirus 1 (SnAdV-1) fibre head domain, construct 234-345, native (domain or fragment)",–,3
